From patent US20250262274A1

Biological target: VMRFL (VEGFR2-c-MPL chimeric receptor, D1-7 linked to the c-MPL TM) (human)
Test: cell-based or functional assay

Substance “recombinant human VEGF-A165 (from UniProt P15692 27-191) (ligand)” has an EC50 of % pSTAT5+ cells (VEGF dose-dependent STAT5 phosphorylation in VMRFL+ T cells) of 106 pg/ml and an EC50 of pSTAT5 MFI (VEGF dose-dependent STAT5 phosphorylation in VMRFL+ T cells) of 144 pg/mL.
